Reference: patent EP2058006A1

Columns and labels:
[1] = target: CC-chemokine receptor CCR5 on the cell surface (UniProt P51681)
[2] = target: CC-chemokine receptor CCR5 on the cell surface (UniProt P51681); assay: cell-based or functional assay
[3] = target: CC-chemokine receptor CCR5 on the cell surface (UniProt P51681); assay: flow cytometry on PHA/IL-2-stimulated PBMC
[4] = target: CC-chemokine receptor CCR5 on the cell surface (UniProt P51681); assay: flow cytometry on L1.2-CCR5+ cells, saturating mAb, PE anti-mouse IgG
[5] = target: CC-chemokine receptor CCR5 on the cell surface (UniProt P51681); assay: flow cytometry on PHA/IL-2-stimulated PBMC, mean fluorescence intensity

Chain of UniProt P51681 (P51681 whole entry): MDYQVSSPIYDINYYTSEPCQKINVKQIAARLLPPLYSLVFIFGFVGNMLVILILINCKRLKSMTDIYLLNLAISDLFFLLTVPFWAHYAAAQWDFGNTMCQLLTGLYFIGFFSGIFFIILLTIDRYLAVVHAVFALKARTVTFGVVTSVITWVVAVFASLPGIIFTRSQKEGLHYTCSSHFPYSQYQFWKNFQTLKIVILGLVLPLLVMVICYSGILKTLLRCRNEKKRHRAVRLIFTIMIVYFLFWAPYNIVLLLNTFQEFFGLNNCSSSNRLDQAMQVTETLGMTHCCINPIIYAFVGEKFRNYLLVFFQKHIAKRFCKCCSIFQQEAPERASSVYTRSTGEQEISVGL

| Substance | IC50 [1] [µg/mL] | IC50, inhibition of JR-FL entry (luciferase reporter virus, U87MG-CD4+CCR5+ cells) [2] [µg/mL] | IC50, inhibition of cell-cell fusion (RET assay, PM1 and HeLa-EnvJR-FL+ cells) [2] [µg/mL] | K (equal to the IC50), inhibition of cell-cell fusion, median effect fit (RET assay) [2] [µg/mL] | % of PBMC stained [3] [%] | % of L1.2-CCR5+ cells stained [4] [%] | IC50 for inhibition of RANTES-induced calcium influx in L1.2-CCR5+ cells [2] [µg/mL] | ratio of the PA14 IC50 to the 2D7 IC50, RANTES-induced calcium influx [2] [fold] | fold difference in m.f.i. against PA9 [5] [fold] |
| --- | --- | --- | --- | --- | --- | --- | --- | --- | --- |
| anti-CCR5 mAb 2D7 (Pharmingen) (antibody) | 1.38 | 0.026 | 1.6 | 0.36 | > 20 | > 90 |  |  |  |
| anti-CCR5 monoclonal antibody PA14 (ATCC Accession No. HB-12610) | 1.58 | 0.024 | 1.7 |  | > 20 | > 90 | 50 | 8 | 7 |
